From patent publication US20260042827A1 (published 2026)
Positions count from the first letter of the chain named.

Experiments:
[1] = target: T1, HLA-DP2 (human, UniProt P20036 29-222; P04440 30-225); experiment: competition
T1 chain 1: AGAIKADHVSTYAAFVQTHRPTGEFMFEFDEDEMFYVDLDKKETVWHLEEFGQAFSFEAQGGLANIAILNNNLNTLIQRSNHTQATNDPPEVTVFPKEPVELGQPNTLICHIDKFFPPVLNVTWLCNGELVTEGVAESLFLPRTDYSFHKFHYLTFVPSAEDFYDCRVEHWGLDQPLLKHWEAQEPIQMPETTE
T1 chain 2: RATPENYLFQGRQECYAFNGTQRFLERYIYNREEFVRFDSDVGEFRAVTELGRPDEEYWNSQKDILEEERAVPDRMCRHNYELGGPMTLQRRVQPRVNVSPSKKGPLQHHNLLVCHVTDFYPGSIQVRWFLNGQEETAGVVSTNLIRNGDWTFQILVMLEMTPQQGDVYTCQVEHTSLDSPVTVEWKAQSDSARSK

[2] = target: T2, HLA-DP4 (human, UniProt P20036 29-222; P04440 30-225); experiment: competition
T2 chain 1: T1 chain 1
T2 chain 2: T1 chain 2 with V36A, D55A, E56A, E69K

IC50 [1]: 8 µM
IC50 [2]: 23.8 µM
Binder: PGCNKRYFKLSHLQMHSRKHT [WT1328-348]
